Measurements reported in patent US6500669.

Molecular target: hUBF (upstream binding factor, RNA polymerase I transcription factor) (Homo sapiens) (UniProt P17480)
Experiment: footprint
Details: apparent Kd, half-maximal binding; cooperative, Hill 2.7; 14 mM MgCl2, 50 mM KCl, pH 7.9, 30 C

hUBF (upstream binding factor, RNA polymerase I transcription factor) (Homo sapiens), sequence (P17480 whole entry): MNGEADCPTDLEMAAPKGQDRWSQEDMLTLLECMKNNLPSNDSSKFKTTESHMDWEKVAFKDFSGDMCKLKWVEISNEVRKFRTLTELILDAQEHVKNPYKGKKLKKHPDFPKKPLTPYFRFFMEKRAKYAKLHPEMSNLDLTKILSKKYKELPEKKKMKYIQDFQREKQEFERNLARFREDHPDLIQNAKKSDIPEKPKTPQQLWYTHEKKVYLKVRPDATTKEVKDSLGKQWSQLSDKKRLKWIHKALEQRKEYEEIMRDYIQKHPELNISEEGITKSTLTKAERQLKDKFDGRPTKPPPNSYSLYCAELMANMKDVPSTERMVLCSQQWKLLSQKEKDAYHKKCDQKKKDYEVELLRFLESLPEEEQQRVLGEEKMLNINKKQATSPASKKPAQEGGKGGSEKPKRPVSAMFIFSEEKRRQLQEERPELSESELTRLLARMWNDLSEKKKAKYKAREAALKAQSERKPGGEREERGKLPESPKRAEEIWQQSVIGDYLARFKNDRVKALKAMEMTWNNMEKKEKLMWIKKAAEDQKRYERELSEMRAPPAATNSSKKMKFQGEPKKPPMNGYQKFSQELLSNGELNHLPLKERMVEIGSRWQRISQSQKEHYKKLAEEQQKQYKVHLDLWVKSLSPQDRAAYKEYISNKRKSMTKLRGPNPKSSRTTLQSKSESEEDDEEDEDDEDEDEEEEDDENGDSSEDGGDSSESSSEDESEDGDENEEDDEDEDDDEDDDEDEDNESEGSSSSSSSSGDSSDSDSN

For “human rRNA gene promoter fragment -208 to +78 (EcoRI-BstEII of pSBr208)”, the Kd was 0.018 nM.
